B1: Nitrogen regulatory protein (Escherichia coli (strain K12)), P69829 (parent)
chain: MTNNDTTLQLSSVLNRECTRSRVHCQSKKRALEIISELAAKQLSLPPQVVFEAILTREKMGSTGIGNGIAIPHGKLEEDTLRAVGVFVQLETPIAFDAIDNQPVDLLFALLVPADQTKTHLHTLSLVAKRLADKTICRRLRAAQSDEELYQIITDTEGTPDEA
partner: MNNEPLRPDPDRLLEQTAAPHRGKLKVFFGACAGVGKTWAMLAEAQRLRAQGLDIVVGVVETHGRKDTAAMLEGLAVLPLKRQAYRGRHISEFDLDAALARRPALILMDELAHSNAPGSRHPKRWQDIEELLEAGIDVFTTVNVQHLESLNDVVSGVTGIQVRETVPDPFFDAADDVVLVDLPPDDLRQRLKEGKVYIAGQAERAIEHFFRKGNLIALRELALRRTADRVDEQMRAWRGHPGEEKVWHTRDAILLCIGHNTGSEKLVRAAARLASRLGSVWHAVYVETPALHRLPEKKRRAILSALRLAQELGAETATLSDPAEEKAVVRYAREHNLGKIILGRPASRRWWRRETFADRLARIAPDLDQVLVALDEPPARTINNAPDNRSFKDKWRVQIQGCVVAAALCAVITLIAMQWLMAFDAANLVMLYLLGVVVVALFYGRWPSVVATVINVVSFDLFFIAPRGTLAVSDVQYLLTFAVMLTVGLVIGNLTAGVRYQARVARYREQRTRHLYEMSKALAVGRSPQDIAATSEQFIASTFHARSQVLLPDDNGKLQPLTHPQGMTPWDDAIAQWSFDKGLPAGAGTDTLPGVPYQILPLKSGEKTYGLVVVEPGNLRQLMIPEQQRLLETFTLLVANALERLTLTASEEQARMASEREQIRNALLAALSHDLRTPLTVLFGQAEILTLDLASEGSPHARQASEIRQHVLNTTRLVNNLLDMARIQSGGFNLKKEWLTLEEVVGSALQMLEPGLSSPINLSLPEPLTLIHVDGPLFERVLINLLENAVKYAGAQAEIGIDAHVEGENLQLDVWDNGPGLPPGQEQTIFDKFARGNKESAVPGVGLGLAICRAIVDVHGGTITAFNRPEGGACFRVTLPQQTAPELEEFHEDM

Variants of: B1
Conditions: with kdpd_ecoli kdpD

Variant	effect of a mutation on the interaction
MTNNDTTLQLSSVLNRECTRSRVHCQSKKRALEIISELAAKQLSLPPQVVFEAILTREKMGSTGIGNGIAIPAGKLEEDTLRAVGVFVQLETPIAFDAIDNQPVDLLFALLVPADQTKTHLHTLSLVAKRLADKTICRRLRAAQSDEELYQIITDTEGTPDEA	increasing interaction strength

Source: IntAct's records for PubMed 19400808
